# Experimental data published in the Human Domainome abundance scans (Beltran et al. 2025).
# ± gives the uncertainty stated by the source.
# B1: Zinc finger protein ZIC 2, residues 250 to 295; numbered along this chain, O95409 (parent)
# chain: QCIKQELICKWIDPEQLSNPKKSCNKTFSTMHELVTHVSVEHVGGP
# Variants of: B1
# Test: abundance fitness (aPCA) (normalised: wild type 0, dead -1); higher = more abundant; growth selection in yeast, the domain comes from the species named
# Details: Homo sapiens
row,Variant,abundance fitness
1,QCIKQELICKWIDPEQLSNPKKSCNKTSSTMHELVTHVSVEHVGGP [F28S],-0.887 ± 0.097
2,QCIKQELICKWIDPEQLSNPKKSCNKTQSTMHELVTHVSVEHVGGP [F28Q],-0.705 ± 0.12
3,QCIKQELICKWIDPEQLSNPKKSCNKTDSTMHELVTHVSVEHVGGP [F28D],-0.914 ± 0.15
4,QCIKQELICKWIDPEQLSNPKKSCNKTGSTMHELVTHVSVEHVGGP [F28G],-0.598 ± 0.089
5,QCIKQELICKWIDPEQLSNPKKSCNKTESTMHELVTHVSVEHVGGP [F28E],-0.547 ± 0.1
6,QCIKQELICKWIDPEQLSNPKKSCNKTMSTMHELVTHVSVEHVGGP [F28M],-0.683 ± 0.11
7,QCIKQELICKWIDPEQLSNPKKSCLKTFSTMHELVTHVSVEHVGGP [N25L],0.083 ± 0.088
8,QCIKQELICKWIDPEQLSNPKKSCGKTFSTMHELVTHVSVEHVGGP [N25G],0.3 ± 0.084
9,QCIKQELICKWIDPEQLSNPKKSCWKTFSTMHELVTHVSVEHVGGP [N25W],-0.453 ± 0.099
10,QCIKQELICKWIDPEQLSNPKKSCVKTFSTMHELVTHVSVEHVGGP [N25V],-0.302 ± 0.088
11,QCIKQELICKWIDPEQLSNPKKSCIKTFSTMHELVTHVSVEHVGGP [N25I],-0.469 ± 0.15
12,QCIKQELICKWIDPEQLSNPKKSCKKTFSTMHELVTHVSVEHVGGP [N25K],0.044 ± 0.11
13,QCIKQELICKWIDPEQLSNPKKSCQKTFSTMHELVTHVSVEHVGGP [N25Q],0.17 ± 0.11
14,QCIKQELICKWIDPEQLSNPKKSCFKTFSTMHELVTHVSVEHVGGP [N25F],-0.517 ± 0.13
15,QCIKQELICKWIDPEQLSNPKKSCHKTFSTMHELVTHVSVEHVGGP [N25H],0.183 ± 0.12
16,QCIKQELICKWIDPEQLSNPKKSCRKTFSTMHELVTHVSVEHVGGP [N25R],0.281 ± 0.088
17,QCIKQELICKWIDPEQLSNPKKSCTKTFSTMHELVTHVSVEHVGGP [N25T],0.072 ± 0.1
18,QCIKQELICKWIDPEQLSNPKKSCAKTFSTMHELVTHVSVEHVGGP [N25A],0.507 ± 0.088
19,QCIKQELICKWIDPEQLSNPKKSCDKTFSTMHELVTHVSVEHVGGP [N25D],-0.047 ± 0.11

row,Variant,abundance fitness
1,QCIKQELICKWIDPEQLSNPKKSCYKTFSTMHELVTHVSVEHVGGP [N25Y],-0.33 ± 0.14
2,QCIKQELICKWIDPEQLSNPKKSCMKTFSTMHELVTHVSVEHVGGP [N25M],-0.019 ± 0.1
3,QCIKQELICKWIDPEQLSNPKKSCPKTFSTMHELVTHVSVEHVGGP [N25P],0.199 ± 0.099
4,QCIKQELICKWIDPEQLSNPKMSCNKTFSTMHELVTHVSVEHVGGP [K22M],-0.126 ± 0.1
5,QCIKQELICKWIDPEQLSNPKESCNKTFSTMHELVTHVSVEHVGGP [K22E],-0.285 ± 0.11
6,QCIKQELICKWIDPEQLSNPKPSCNKTFSTMHELVTHVSVEHVGGP [K22P],-0.095 ± 0.1
7,QCIKQELICKWIDPEQLSNPKTSCNKTFSTMHELVTHVSVEHVGGP [K22T],-0.015 ± 0.1
8,QCIKQELICKWIDPEQLSNPKYSCNKTFSTMHELVTHVSVEHVGGP [K22Y],-0.376 ± 0.15
9,QCIKQELICKWIDPEQLSNPKLSCNKTFSTMHELVTHVSVEHVGGP [K22L],-0.089 ± 0.086
10,QCIKQELICKWIDPEQLSNPKWSCNKTFSTMHELVTHVSVEHVGGP [K22W],-0.404 ± 0.096
11,QCIKQELICKWIDPEQLSNPKFSCNKTFSTMHELVTHVSVEHVGGP [K22F],-0.332 ± 0.11
12,QCIKQELICKWIDPEQLSNPKHSCNKTFSTMHELVTHVSVEHVGGP [K22H],-0.006 ± 0.12
13,QCIKQELICKWIDPEQLSNPKGSCNKTFSTMHELVTHVSVEHVGGP [K22G],-0.126 ± 0.088
14,QCIKQELICKWIDPEQLSNPKVSCNKTFSTMHELVTHVSVEHVGGP [K22V],0.037 ± 0.089
15,QCIKQELICKWIDPEQLSNPKRSCNKTFSTMHELVTHVSVEHVGGP [K22R],0.124 ± 0.086
16,QCIKQELICKWIDPEQLSNPKSSCNKTFSTMHELVTHVSVEHVGGP [K22S],-0.102 ± 0.091
17,QCIKQELICKWIDPEQLSNPKDSCNKTFSTMHELVTHVSVEHVGGP [K22D],-0.035 ± 0.13
18,QCIKQELICKWIDPEQLSNPKQSCNKTFSTMHELVTHVSVEHVGGP [K22Q],-0.166 ± 0.099
19,QCIKQELICKWIDPEQLSNPKNSCNKTFSTMHELVTHVSVEHVGGP [K22N],0.224 ± 0.12

row,Variant,abundance fitness
1,QCIKQELICKWIDPEQLSNPKKDCNKTFSTMHELVTHVSVEHVGGP [S23D],-0.287 ± 0.11
2,QCIKQELICKWIDPEQLSNPKKKCNKTFSTMHELVTHVSVEHVGGP [S23K],0.309 ± 0.11
3,QCIKQELICKWIDPEQLSNPKKMCNKTFSTMHELVTHVSVEHVGGP [S23M],0.246 ± 0.098
4,QCIKQELICKWIDPEQLSNPKKLCNKTFSTMHELVTHVSVEHVGGP [S23L],0.282 ± 0.09
5,QCIKQELICKWIDPEQLSNPKKFCNKTFSTMHELVTHVSVEHVGGP [S23F],0.14 ± 0.13
6,QCIKQELICKWIDPEQLSNPKKACNKTFSTMHELVTHVSVEHVGGP [S23A],0.316 ± 0.09
7,QCIKQELICKWIDPEQLSNPKKYCNKTFSTMHELVTHVSVEHVGGP [S23Y],0.079 ± 0.15
8,QCIKQELICKWIDPEQLSNPKKICNKTFSTMHELVTHVSVEHVGGP [S23I],0.095 ± 0.17
9,QCIKQELICKWIDPEQLSNPKKVCNKTFSTMHELVTHVSVEHVGGP [S23V],0.107 ± 0.091
10,QCIKQELICKWIDPEQLSNPKKWCNKTFSTMHELVTHVSVEHVGGP [S23W],-0.01 ± 0.088
11,QCIKQELICKWIDPEQLSNPKKRCNKTFSTMHELVTHVSVEHVGGP [S23R],0.566 ± 0.084
12,QCIKQELICKWIDPEQLSNPKKHCNKTFSTMHELVTHVSVEHVGGP [S23H],0.156 ± 0.12
13,QCIKQELICKWIDPEQLSNPKKGCNKTFSTMHELVTHVSVEHVGGP [S23G],0.111 ± 0.084
14,QCIKQELICKWIDPEQLSNPKKPCNKTFSTMHELVTHVSVEHVGGP [S23P],0.043 ± 0.11
15,QCIKQELICKWIDPEQLSNPKKTCNKTFSTMHELVTHVSVEHVGGP [S23T],0.193 ± 0.1
16,QCIKQELICKWIDPEQLSNPKKECNKTFSTMHELVTHVSVEHVGGP [S23E],0.002 ± 0.1
17,QCIKQELICKWIDPEQLSNPKKCCNKTFSTMHELVTHVSVEHVGGP [S23C],0.029 ± 0.098
18,QCIKQELICKWIDPEQLSNPKKQCNKTFSTMHELVTHVSVEHVGGP [S23Q],0.226 ± 0.1
